Measurements as given in publication PMC8866402.

Legend:
[1] = molecular target: recombinant human TGF-β1 produced in-house (human)
[2] = molecular target: recombinant mouse TGF-β1 (mouse)
Chain of recombinant mouse TGF-β1 (mouse) (P04202 279-390): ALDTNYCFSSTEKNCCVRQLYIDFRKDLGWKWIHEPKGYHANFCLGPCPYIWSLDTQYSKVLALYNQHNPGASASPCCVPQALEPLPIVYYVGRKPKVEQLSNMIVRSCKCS

Chain of recombinant human TGF-β1 produced in-house (human) (P01137 279-390): as the sequence (P04202 279-390) above, with S75A counted along it

SBE-luciferase activity (firefly/Renilla) in HEK293 cells treated with TGF-β1 (1 nM) without vs with strep-tag-fortilin (3 nM); value given is with fortilin [1]: 5.4 A.U. | SEAP reporter (SBE) activity of MFB-F11 cells stimulated with 156 pM TGF-β1 pre-incubated with 0, 19.5 or 195 nM strep-tag-fortilin; value given is at 195 nM fortilin [2]: 6.3 A.U.
B1: strep-tag-fortilin (recombinant human fortilin with an N-terminal Strep-tag II) (natural protein)
chain: MIIYRDLISHDEMFSDIYKIREIADGLCLEVEGKMVSRTEGNIDDSLIGGNASAEGPEGEGTESTVITGVDIVMNHHLQETSFTKEAYKKYIKDYMKSIKGKLEEQRPERVKPFMTGAAEQIKHILANFKNYQFFIGENMNPDGMVALLDYREDGVTPYMIFFKDGLEMEKC
